These results are taken from US20090093061.

This data set relates to GroEL having Aspartate 490 substituted with Cysteine, biotinylated and conjugated onto NeutrAvidin beads.

As to mitochondrial malate dehydrogenase, the “refolding of denatured mMDH (conversion of NADH to NAD+ in the presence of oxaloacetate, OD at 340 nm)” value is “positive GroEL-490 activity was confirmed by a reduction in OD at 340 nm with respect to the control”.
